Assay [1] deals with BNP with deletion of aa 1-38 (BNP-Δ38) (influenza B virus (B/panama/45/1990)). The experiment in a line: negative-stain electron microscopy.
Assay [2] concerns the target BNP with deletion of aa 1-66 (BNP-Δ66) (influenza B virus (B/panama/45/1990)). The experiment in a line: negative-stain electron microscopy.

Several values for one entry are separate records, joined by “and”; a condition that tells them apart may be missing. Identical values can stand only once.

The term stoichiometry N denotes the number of molecules, sites or subunits per partner or assembly. In the case of “BNP with deletion of aa 1-38 (BNP-Δ38) (domain or fragment)”, in assay [1], the stoichiometry N was 4 and 5.

“BNP with deletion of aa 1-66 (BNP-Δ66) (domain or fragment)”: the stoichiometry N in assay [2] is 4 and 5.

Values taken from article PMC4569402.
